Test system: Fes; GST-cortactin (residues 382–550)
Test: In vivo kinase assay: Fes autophosphorylation and GST-cortactin phosphorylation in transfected HEK293T cells
Type: cell-based, human
Settings: HEK293T cells, anti-pTyr western blot, in words
From the text: To pursue the relevance of the observed interdomain interactions, we studied the effects of mutating residues in the SH2-kinase interface on human Fes activity. To this end, we monitored Fes autophosphorylation and transphosphorylation activity in transfected cells, using cortactin (residues 382–550) fused to GST as an exogenous substrate (Figures 2A and 2B). In an effort to perturb the close interaction between the SH2 and kinase domains, we mutated the conserved glycine residue (G463) located in the tightly packed interface between the SH2 N terminus and the kinase β4/β5 loop to valine (mutant G/V). Introducing this bulky side chain would be expected to sterically hinder alignment of the SH2 and kinase domains, resulting in an altered domain packing. Wild-type (WT) and G/V mutant full-length human Fes, each with an N-terminal Flag epitope, were expressed in HEK293T cells together with GST-cortactin.
Wild-type p130^Gag-Fps and the RX15m and AX9m mutants ([Stone et al., 1984]) were subcloned into the vector pRK5-myc ([Winberg et al., 2000]). Full-length human Fes was cloned into the vector pCMV7.1-3xFlag (Sigma, St. Louis, MO). Site-directed mutagenesis was performed using the QuickChange® II XL Kit (Stratagene, La Jolla, CA) following the manufacturer's directions. A GST-tagged C-terminal fragment of human cortactin (residues 382–550, accession Q14247) was prepared by PCR from cDNA (accession BC008799) and cloned into pEBG vector (gift from C. Duckett, University of Michigan Medical School, Ann Arbor).
HEK293T cells were maintained in Dulbecco's modified Eagle's medium supplemented with 10% (vol/vol) fetal bovine serum, 100 units/ml penicillin G sodium, and 100 μg/ml streptomycin and incubated at 37°C, 5% CO2.
Flag-tagged Fes or Myc-tagged p130^Gag-Fps and mutants thereof were cotransfected with GST-cortactin into HEK293T cells. After 24 hr, cells were lysed with NP-40 cell lysis buffer (50 mM Tris-HCl [pH 7.5], 150 mM NaCl, 1% NP-40, and 1 mM EDTA) that contained 1 mM phenylmethylsulfonyl fluoride, 10 μg/ml leupeptin, 10 μg/ml aprotinin, and 10 μg/ml pepstatin A. Cell lysates, normalized for protein concentration, were used in anti-Flag M2 antibody-agarose (Sigma) or anti-Myc antibody immunoprecipitations or glutathione sepharose affinity precipitations. Associated proteins were resolved using SDS-PAGE and analyzed by western blotting using anti-Flag M2 (Sigma), anti-c-Myc 9E10 (Santa Cruz), HRP-conjugated anti-GST (Santa Cruz), or anti-pTyr 4G10 (Upstate) antibodies.

B1: R/M: Fes with R483 in the SH2 pTyr-binding pocket substituted with methionine (protein, UniProt P07332 1-822, looked up, variant R483M)
Tyrosine-protein kinase …: MGFSSELCSPQGHGVLQQMQEAELRLLEGMRKWMAQRVKSDREYAGLLHHMSLQDSGGQSRAISPDSPISQSWAEITSQTEGLSRLLRQHAEDLNSGPLSKLSLLIRERQQLRKTYSEQWQQLQQELTKTHSQDIEKLKSQYRALARDSAQAKRKYQEASKDKDRDKAKDKYVRSLWKLFAHHNRYVLGVRAAQLHHQHHHQLLLPGLLRSLQDLHEEMACILKEILQEYLEISSLVQDEVVAIHREMAAAAARIQPEAEYQGFLRQYGSAPDVPPCVTFDESLLEEGEPLEPGELQLNELTVESVQHTLTSVTDELAVATEMVFRRQEMVTQLQQELRNEEENTHPRERVQLLGKRQVLQEALQGLQVALCSQAKLQAQQELLQTKLEHLGPGEPPPVLLLQDDRHSTSSSEQEREGGRTPTLEILKSHISGIFRPKFSLPPPLQLIPEVQKPLHEQLWYHGAIPRAEVAELLVHSGDFLVMESQGKQEYVLSVLWDGLPRHFIIQSLDNLYRLEGEGFPSIPLLIDHLLSTQQPLTKKSGVVLHRAVPKDKWVLNHEDLVLGEQIGRGNFGEVFSGRLRADNTLVAVKSCRETLPPDLKAKFLQEARILKQYSHPNIVRLIGVCTQKQPIYIVMELVQGGDFLTFLRTEGARLRVKTLLQMVGDAAAGMEYLESKCCIHRDLAARNCLVTEKNVLKISDFGMSREEADGVYAASGGLRQVPVKWTAPEALNYGRYSSESDVWSFGILLWETFSLGASPYPNLSNQQTREFVEKGGRLPCPELCPDAVFRLMEQCWAYEPGQRPSFSTIYQELQSIRKRHR
Flag-Fes
  Fes autophosphorylation: failed to autophosphorylate
GST-cortactin
  transphosphorylation of cortactin: significantly reduced ability to transphosphorylate cortactin

Reference: paper PMC2572732, “Structural Coupling of SH2-Kinase Domains Links Fes and Abl Substrate Recognition and Kinase Activation” (Cell, 2008)
